According to paper PMC3843708, “Mutational Analysis of Sclerostin Shows Importance of the Flexible Loop and the Cystine-Knot for Wnt-Signaling Inhibition” (PLoS ONE, 2013):
Substitutions are numbered along the chain they refer to. Names may count otherwise.

Assays:
LRP6 E1E2 (Homo sapiens) = LRP6 E1E2 (Homo sapiens) (UniProt O75581); conditions: cited from earlier work
LRP6 E3E4 (Homo sapiens) = LRP6 E3E4 (Homo sapiens) (UniProt O75581); conditions: cited from earlier work
[1] = target: LRP6 first propeller domain (Homo sapiens) (UniProt O75581); conditions: cited from earlier work
[2] = target: LRP6 second propeller domain (Homo sapiens) (UniProt O75581); conditions: cited from earlier work
human LRP6 = human LRP6 (human, UniProt O75581 20-1613); assay: cell-based or functional assay
[3] = target: T1, human LRP6 protein fragment comprising propeller domains E1 and E2 (LRP6E1E2) (human, UniProt O75581 20-630); assay: cell-based or functional assay
T1 sequence (looked up): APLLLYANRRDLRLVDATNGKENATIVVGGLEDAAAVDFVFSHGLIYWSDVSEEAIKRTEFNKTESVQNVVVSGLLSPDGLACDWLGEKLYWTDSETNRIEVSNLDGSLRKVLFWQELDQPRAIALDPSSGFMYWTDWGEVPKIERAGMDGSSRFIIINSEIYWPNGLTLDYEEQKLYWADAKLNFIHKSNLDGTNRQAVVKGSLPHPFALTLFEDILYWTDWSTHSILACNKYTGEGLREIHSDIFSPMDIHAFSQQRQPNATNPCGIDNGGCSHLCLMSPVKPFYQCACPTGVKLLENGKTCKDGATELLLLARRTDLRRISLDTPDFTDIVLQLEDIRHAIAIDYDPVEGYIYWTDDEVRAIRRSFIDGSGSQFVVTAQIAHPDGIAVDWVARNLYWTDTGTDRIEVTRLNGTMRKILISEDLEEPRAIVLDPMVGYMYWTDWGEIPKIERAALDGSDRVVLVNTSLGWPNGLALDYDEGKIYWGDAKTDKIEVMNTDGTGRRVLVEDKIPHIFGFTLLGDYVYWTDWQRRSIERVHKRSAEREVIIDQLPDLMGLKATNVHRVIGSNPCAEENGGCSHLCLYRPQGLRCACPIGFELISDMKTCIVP

Sequence of LRP6 E3E4 (Homo sapiens) (O75581 631-1246): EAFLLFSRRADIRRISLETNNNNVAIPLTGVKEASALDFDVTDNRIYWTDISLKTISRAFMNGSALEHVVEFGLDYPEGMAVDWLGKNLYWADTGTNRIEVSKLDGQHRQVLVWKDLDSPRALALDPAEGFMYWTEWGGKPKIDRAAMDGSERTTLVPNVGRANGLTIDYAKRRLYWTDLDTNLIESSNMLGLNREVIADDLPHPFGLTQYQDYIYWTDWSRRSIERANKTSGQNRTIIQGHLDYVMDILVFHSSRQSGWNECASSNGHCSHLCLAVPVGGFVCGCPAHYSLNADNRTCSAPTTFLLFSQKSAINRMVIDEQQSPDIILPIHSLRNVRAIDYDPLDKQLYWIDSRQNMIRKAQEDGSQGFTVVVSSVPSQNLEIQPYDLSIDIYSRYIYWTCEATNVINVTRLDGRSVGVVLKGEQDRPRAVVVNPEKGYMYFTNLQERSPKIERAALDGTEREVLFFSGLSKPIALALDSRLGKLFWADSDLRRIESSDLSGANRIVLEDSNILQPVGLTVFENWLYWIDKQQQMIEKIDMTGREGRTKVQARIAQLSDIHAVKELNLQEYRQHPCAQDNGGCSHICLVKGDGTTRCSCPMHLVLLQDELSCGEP

## Dkk1 (from UniProt O94907)
LRP6 E1E2 (Homo sapiens)
  Kd: 60 nM
LRP6 E3E4 (Homo sapiens)
  Kd: 60 nM

## Sclerostin (from UniProt Q9BQB4)
[1]
  Kd: 60 nM
[2]
  Kd: 1300 nM

B1: wildtype full-length murine Sclerostin (natural protein, UniProt Q99P68 24-211, looked up)
chain: QGWQAFRNDATEVIPGLGEYPEPPPENNQTMNRAENGGRPPHHPYDAKDVSEYSCRELHYTRFLTDGPCRSAKPVTELVCSGQCGPARLLPNAIGRVKWWRPNGPDFRCIPDRYRAQRVQLLCPGGAAPRSRKVRLVASCKCKRLTRFHNQSELKDFGPETARPQKGRKPRPGARGAKANQAELENAY
modifications: 125I-iodinated (Chloramine T) where used as radioligand; biotinylated (EZ-Link Sulfo-NHS-LC-Biotin, molar ratio 1:1.5) in the pull-down
Human LRP6
  IC50 of inhibition of Wnt1-driven SuperTOPFlash luciferase reporter, HEK-293TSA M50 cells transfected with mWnt1: 10 nM

B2: Sclerostin C84AC142R (natural protein, murine, UniProt Q99P68 24-211, looked up)
chain: B1 chain with C84A, C142R
modifications: biotinylated (EZ-Link Sulfo-NHS-LC-Biotin, molar ratio 1:1.5) in the pull-down
[3]
  fold decrease against wildtype of the efficiency to inhibit Wnt1-driven SuperTOPFlash luciferase reporter (supernatants of HEK Freestyle cells expressing the variant): 10 fold

B3: Sclerostin Alaloop (natural protein, murine, UniProt Q99P68 24-211, looked up)
chain: B1 chain with L90S, N92G, I94S, R96A, V97R, K98S, W99G, W100S, R101A, N103A
modifications: 125I-iodinated (Chloramine T) where used as radioligand
Human LRP6
  IC50 of inhibition of Wnt1-driven SuperTOPFlash luciferase reporter, HEK-293TSA M50 cells transfected with mWnt1: 831 nM
  IC50 of inhibition of Wnt3a-driven SuperTOPFlash luciferase reporter, HEK-293TSA M50 cells with 1.5 nM mWnt3a: 1110 nM

B4: Sclerostin I94A (natural protein, murine, UniProt Q99P68 24-211, looked up)
chain: B1 chain with I94A
Human LRP6
  IC50 of inhibition of Wnt1-driven SuperTOPFlash luciferase reporter, HEK-293TSA M50 cells transfected with mWnt1: 26.9 nM

B5: Sclerostin N92A (natural protein, murine, UniProt Q99P68 24-211, looked up)
chain: B1 chain with N92A
Human LRP6
  IC50 of inhibition of Wnt1-driven SuperTOPFlash luciferase reporter, HEK-293TSA M50 cells transfected with mWnt1: 196 nM

B6: Sclerostin ΔLoop (natural protein, murine, UniProt Q99P68 24-211, looked up)
chain: QGWQAFRNDATEVIPGLGEYPEPPPENNQTMNRAENGGRPPHHPYDAKDVSEYSCRELHYTRFLTDGPCRSAKPVTELVCSGQCGPARLGSGPDFRCIPDRYRAQRVQLLCPGGAAPRSRKVRLVASCKCKRLTRFHNQSELKDFGPETARPQKGRKPRPGARGAKANQAELENAY
modifications: 125I-iodinated (Chloramine T) where used as radioligand; biotinylated (EZ-Link Sulfo-NHS-LC-Biotin, molar ratio 1:1.5) in the pull-down
Human LRP6
  IC50 of inhibition of Wnt1-driven SuperTOPFlash luciferase reporter, HEK-293TSA M50 cells transfected with mWnt1: 806 nM
  IC50 of inhibition of Wnt3a-driven SuperTOPFlash luciferase reporter, HEK-293TSA M50 cells with 1.5 nM mWnt3a: 655 nM
